# Results taken from the nanobody polyreactivity screen of Harvey et al. (2022).
# Experiment: yeast display, Sf9 membrane polyspecificity reagent, FACS + sequencing; frameworks hold sequencing errors
# Outline: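 Nanobodies from a synthetic yeast display library (Saccharomyces cerevisiae BJ5465), induced 36–48 hours with galactose, were stained 1 hour at 4 °C with 10% biotinylated, detergent-solubilized Sf9 membrane reagent, enriched on streptavidin microbeads, then FACS-sorted. Anti-HA (expression) and streptavidin (reagent binding) fluorescence set low and high (top ~1%) gates. Polyreactivity labels come from the gate of origin. Genes were colony-PCR amplified, MiSeq 2 × 250 sequenced and filtered by CDR length.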
row,Sequence,polyreactivity (PSR sort gate)
1,QVQLVESGGGLDQAGGSLRLSCAASGRIFSYYTMGWYRQAPGKERELVAAITWGGGSTSYADSVKGRFTISRDNAKNTVYLQMNSLKPEDTAVYYCAESPGANRMDYWGQGTQVTVSS,low polyreactivity
2,QVQLVESGGGLDQAGGSLRLSCAASGRIIRYYAKGWYRQAPGKEREFVATISSGGSTNYADSVKGRFTISRDNAKNNVYLQMNSLKQEHTSVYYCNRVYSRHVWGQGTQVTVSS,high polyreactivity
3,QVQLVESGGGLDQAGGSLRLSCAASGRILTGYAMGWYRQAPVKVRELVAAISNDTDSTHYADSVKGRFTISRDNAKKTVYLQMNSLKPEATAVYYCATDAPLQKRWRRFDYWGQGTHVTVSS,low polyreactivity
4,QVQLVESGGGLDQAGGSLRLSCAASGRNYGLYAMGWYIQAPWKERELVAAITRTASTNYADSVNGRFTISRDNAKNTVYLQMNSLKPEDTAVYYCAAESWYPSDLWYTYEYWGQGTQVTVSS,low polyreactivity
5,QVQLVESGGGLDQAGGSLRLSCAASGRTFDFYAMGWYRQAPGKEMELVAAITFSTGSTTYADSVKGRFTISRDNAKNTVYLQMNSLKPEDTAVYYCAADGDGWWWSYVDRYDYWGQGTQVTVSS,low polyreactivity
6,QVQLVESGGGLDQAGGSLRLSCAASGRTFGYYARGWYRQAPGKERELVAAISYSGGTTYYADSVKGRYTISRDNAKNTVYLQMNSLKPEDTAVYYCATGGYSTRQSTFDYWGQGTQVTVSS,low polyreactivity
7,QVQLVESGGGLDQAGGSLRLSCAASGRTFIYNAMGWYRQAPGKEREFVAAITWSGATTRYADSVKGRFTISRDNAKNTVYLQMNSLKPEDTAVYYCAKGGFYYYGWRSSMDYWGQGTQVTVSS,high polyreactivity
8,QVQLVESGGGLDQAGGSLRLSCAASGRTFWNYAMGWYRQAPGKERELVAVIRFSDGSTYYADSVKGRFTISRDNAKNTVYLQMNSLKPEDTAVYYCAAKGPRRWASGFDYWGQGTQVTVSS,low polyreactivity
9,QVQLVESGGGLDQAGGSLRLSCAASGRTFYANPMGWYRQAPGKQRELVAAIRRSGGRTYYADSVKGRFTISRDNAKNTVYLQMNSLKPEDTAVYYCATARYRAEMGYWGQGTQVTVSS,high polyreactivity
10,QVQLVESGGGLDQAGGSLRLSCAASGRTIRYYTMGWYRQAPGTERELVATIRRGGTTYYADSVKGRFTISRDNAKNTVYLQMNSLKPEDTAVYYCAKESLYQYDYWGQGTQVTVSS,low polyreactivity
11,QVQLVESGGGLDQAGGSLRLSCAASGRTYYRYAMGWYRQAPGKESELVAAITWSGGSSYYADSVKGRFTTSRDNAKNTVYLQRNTLKPEDTAVYYCARRLYPYRPTAYDSWGQGTQVTVAS,low polyreactivity
12,QVQLVESGGGLDQAGGSLRLSCAASGSIFFYNVLGWYRQAPGKERELVASISWRGASTYYADSVKGRFTISRDNAKNTVYLQMNSLKPEDTAVYYCAARFRSATRYQTGYYWGQGTQVTVSS,high polyreactivity
13,QVQLVESGGGLDQAGGSLRLSCAASGSIFHWNVMGWYRQAPGKERKLVAVISSSDGSTNYADSVKGRFTISRDNAKNTVYLQMNCLKPEDTAVYYCAARGYAINYLWPFNYWGQGTQVTVSS,low polyreactivity
14,QVQLVESGGGLDQAGGSLRLSCAASGSIFKYYVIGCYRQAPAKERELLAAISSGGSTYYADSVKGRFTISRDNAKNTVSLQLNSLKPEDTAVYFCAAKKAKSYYVSRYPRYYYWGQGTQVTVSS,low polyreactivity
15,QVQLVESGGGLDQAGGSLRLSCAASGSIFPINAMGWYRQAPGKEREFDAAISSRGGSTYYADSVKGRFTISRDNAKNTVYFQMNSLKPEDTAVYYCAKYASVGYGRYPYDYWGQGTQVTVSS,high polyreactivity
16,QVQLVESGGGLDQAGGSLRLSCAASGSIFQYYAMGWYRQAPGKEREFVAAITSDGSSTYYADSVKGRFTISRDNAKNTVYLQMNSLKPEDTAVYYCAAGWVGYRLPSMYYWGQGTQVTVSS,high polyreactivity
17,QVQLVESGGGLDQAGGSLRLSCAASGSIFTGNAMGLYRQAPGKERELVAAISSSGGSTYYADSVKGRFTISRDNAKNTVYLQMNSLKPEDTAVYYCAAYKYFLQYDYWGQGTQVTVSS,low polyreactivity
18,QVQLVESGGGLDQAGGSLRLSCAASGSIFYHNAMGWYRQAPGKERELVAAITGSGGSTYYADSVKWRFTISRDNAKNTFYLQMNSLKPEDTAVYYCAADYDYQYRYYYWGQGTQVTVSS,low polyreactivity
19,QVQLVESGGGLDQAGGSLRLSCAASGSIIWYYAMGWYRQAPGKESELVASISRRGGSTYYADSVKGRFTISRDNAKYTVYLQMNSLKPEDTAVYYCAAYSRTTGSTVQGTYDYWGQGTQVSVSS,low polyreactivity
20,QVQLVESGGGLDQAGGSLRLSCAASGSISVWYVMGWYRQAPGKERELVAAITRSGGSTFYADSLKGRFTISRDNAKNTVYLQMNSLKPEDTAVYYCASDGGVAWGYGDWGQGTQVTVSS,low polyreactivity
21,QVQLVESGGGLDQAGGSLRLSCAASGSTFDVYAMGRYRQAPGKVRELVAAISRSGGSTYYADSVKGRFTISRDYAKNNVYLQMYSLKPEDTAVYYCNARLARWGSYEYNYWGQGTQVTVSS,low polyreactivity

row,Sequence,polyreactivity (PSR sort gate)
1,QVQLVESGGGLDQAGGSLRLSCAASGSTFLYYAMGWYRQAPGKEREFVARITTRVGRTYYADSVKGRFTISRDNAKNTVSLQMNSLKPEDTAVYYCAAVRISRTPRGLYEYWGQGTQVTVSS,high polyreactivity
2,QVQLVESGGGLDQAGGSLRLSCAASGSTFPSYAMGWYRQAPGKERELVAAINSGGGTNYADSVKGRFTISRDNAKNTVYLQMNSLKPEDTAVYYCAKSRYDYTKTEGGYWGQGTQVTVSS,low polyreactivity
3,QVQLVESGGGLDQAGGSLRLSCAASGSTFRFNAMGWYRQAPGKEREFVAAIRFTGGSSYYSDSVKGRFTISRDNAKNTVYLQMNSLKPDDTAVYYCNNADEYSTVEYDYWGQGTLVTVSS,low polyreactivity
4,QVQLVESGGGLDQAGGSLRLSCAASGSTFYGYAMGWYRPAPGKERELVAGISSGDSTNYADSVKGRFTISRDNAKNTVYLQMNSLKPEDTAVYYCARDYSRHKGDYWGQGTQVTVSS,low polyreactivity
5,QVQLVESGGGLDQAGGSLRLSCAASGSTVVRYAMGWYRQAPGKEREFVATISRRGGSTYYADSVKGRFTISRDNAKNTVYLQMNSLKPEDTAVYYCAKQGEAALPYIYDHWGQGTQVTVSS,low polyreactivity
6,QVQLVESGGGLDQAGGSLRLSCAASGYIFGSYAMGWYRQAPGKERELVAAITISGGRTYYADSVKGRFTISRDNAKNTVYLQMNSLLPEDTAVYYCAKDGERSRNGRIHYDYWGQGTKVTVSS,low polyreactivity
7,QVQLVESGGGLDQAGGSLRLSCAASGYTYGYYAMGWYRQAPGKERELVATISYSGGTTYYADSVRGRFTISRDNAKNTVYLQMNSLKPEDTAVYYCNARGYKRLYGYWVQGTQVTVSS,high polyreactivity
8,QVQLVESGGGLDQAGGSLRLSCADSGFTSDGYAKGSYTQAPGKEREFVADINSDGSTNYADSVKARFTISRDNAKNTVYLQLNSLIPEDSAVYYCAKDQAAYYLIPWYPLHDYWGQGTQVTLSS,low polyreactivity
9,QVQLVESGGGLDQAGGSLRLSCASSGRIFRYNARGWYRQAPGKERELVAAITSGTGTNYADSVKGRFTISRDNAKNTVYLQMNRLTPEETAVYYCAVDYGYWRDSMGLGVFDYWGQGTQVTVSS,low polyreactivity
10,QVQLVESGGGLDQAGGSLRLSCDASGFIFVRYAMGWSRQAPGKERELVAGINSGGSTSYADSVKGRFTISRDNAKNTVYLQMNSLKPEDSAVYYCNADVYVGYEYEYWGQGTQVTVSS,low polyreactivity
11,QVQLVESGGGLDQAGGSLRLSCPASGRIFPINAMGRYRQAPGKERELVAAISYSRGSTYYADSVKGRFTISRDNAKNTVYLQMNSLKPEDTAVYYCNARYPYSYYHRYYYWGQGTQVSVSS,high polyreactivity
12,QVQLVESGGGLDQAGGSLRLSCVASGSIFRGNAMGWYRQAPGKERELVASISKGGGSTYYADSVKGRFIISRDNAKNTVYLQMNSLKPEDTAVYYCNAQFYNSGWSFKYYYWGQGTQVTVSS,low polyreactivity
13,QVQLVESGGGLDQAGGSLRLSSAASGFTFRRNAMGWYRQAPGTERELVASITQRGGSTYYADSVKGRFTISRDNAKNTVYLQMNSLKPEATAVYYCAAGPTSRRWYDYWGQGTEVTVSS,high polyreactivity
14,QVQLVESGGGLDQAGGSLRLSSAASGITFYGYDMGWYRQAPGKARELVAAITSDGITNYADSVKGRFTFSRDNAKNTVYLHMNSLKPEDTAVYYCAADLSFYRRYEWYYYWGQGTQVTVSS,low polyreactivity
15,QVQLVESGGGLDQAGGSLRLSWAASGSIFTIYAMGWYRQAPGKERELVAAISRRGGSTYYADSVKGRFTISRDNSKNTVYLQMNSLKPEDTAVYYCNADVAPGIFYGYDCWGQGTQVTVSS,low polyreactivity
16,QVQLVESGGGLDQAGGSLRLSWAASGSTFTINVMGWYRQAPGKERELVAAINGGGRTNYADSVKGRFTISRDNAKNTVYLQMNSLKPEDTAVYYCAADGLSNVRQMDFWGQGTQVTVSS,low polyreactivity
17,QVQLVESGGGLDQAGGSLRLTCAASGFTFQVYAMGWYRQAPGKERELVADITSGTSTNYADSVKGRFTSSRDNAKNTVYLQMNSLKPEDTAVYYCANVYTYKSFDYWGQGTQVTVSS,low polyreactivity
18,QVQLVESGGGLDQAGGSLRLTCAASGRIISGNAMGWYRQAPGKERELVAAISWSGGSTYYADSVKWRFTISRDNEKNTVYLHMNSLQPEDSAVYYCNAPGYRRYGSRMGYCGQGTQVTVSS,high polyreactivity
19,QVQLVESGGGLDQAGGSLRLTCAASGSIFEIYDRGWYRQAPGKEMELVASIRTSGGSTFYADSVKGRFTISRDNAKNTVYLQMNSLKPEDTAVYYCAAGDVPRRIYLVYVGYLLDYWGQGTQVTVSS,low polyreactivity
20,QVQLVESGGGLDQAGGTLRLSSAASGSTFYTNAMGWYRQAPGKERELVAAISGSGGSTYYADSVKGRFTISRDNAKNTVYLQMNSLKPEDNAVYYCAARSRYYDTRFDYWGQGTQVTVSS,low polyreactivity
